Measured values: patent publication US20210207126A1 (ADAGENE, published 2021)

T1: Recombinant human CTLA4-Fc (human, UniProt P16410 36-161, limits assumed)
T1 construct: Coated on the ELISA plate at 1 ug/mL; also called its antigen; not shown: Fc part
T1 sequence (looked up): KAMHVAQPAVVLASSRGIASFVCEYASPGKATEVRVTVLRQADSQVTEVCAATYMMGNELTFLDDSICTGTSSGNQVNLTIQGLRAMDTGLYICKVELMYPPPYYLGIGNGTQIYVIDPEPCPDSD


How the values were obtained:
[1] = target: T1, Recombinant human CTLA4-Fc; test: ELISA on plate-coated recombinant human CTLA4-Fc as in Example 3 (FIG. 24A)
Method: (§1) Recombinant human CTLA4-Fc was diluted to 1 μg/mL in PBS and coated on a Maxisorp plate at 4° C. overnight. Plates were blocked with PBS supplemented with 3% non-fat milk at 37° C. for 1 hour. After washing, 100 μL of 3-fold serial dilutions of antibodies were added to each well. After incubation at 37° C. for 1 hour, plates were washed four times, and 100 μL HRP conjugated anti-human IgG (Fab specific) (1:6000 dilution) was added to each well. Plates were incubated at 37° C. for 1 hour, washed four times, and then 50 μL TMB substrate solution was added to each well, and the plate was incubated at room temperature. Absorbance at 450 nm was measured after the reactions were stopped with 50 μL H₂SO₄ per well. The EC₅₀ was evaluated by fitting the ELISA data using the asymmetrical sigmoidal (five-parameter logistic equation) model of GraphPad Prism 6 software.

[2] = target: T1, Recombinant human CTLA4-Fc; test: ELISA on plate-coated recombinant human CTLA4-Fc as in Example 3 (FIG. 24B)
Method: as §1

[3] = target: T1, Recombinant human CTLA4-Fc; test: ELISA on plate-coated recombinant human CTLA4-Fc, before protease cleavage, data batch 1
Method: as §1

[4] = target: T1, Recombinant human CTLA4-Fc; test: ELISA on plate-coated recombinant human CTLA4-Fc, before protease cleavage, data batch 2
Method: as §1

[5] = target: T1, Recombinant human CTLA4-Fc; test: ELISA on plate-coated recombinant human CTLA4-Fc as in Example 3 (FIG. 25)
Method: as §1

[6] = target: T1, Recombinant human CTLA4-Fc; test: ELISA on plate-coated recombinant human CTLA4-Fc, protease cleavage experiment, no treatment
Method: as §1
The purified activatable antibodies were treated with the proteases which recognize the cleavage sequences, and were then tested to determine whether removal of the masking peptide restored their activity.

Binder	masking efficiency (EC50 / EC50 of parental TY21580) [1]	masking efficiency (EC50 / EC50 of parental TY21580) [2]	masking efficiency (EC50 / EC50 of parental TY21580) [3]	masking efficiency (EC50 / EC50 of parental TY21580) [4]	masking efficiency (EC50 / EC50 of parental TY21580) [5]	masking efficiency (EC50 / EC50 of parental TY21580) [6]
TY22402 (antibody, V domains shown, IgG1 from HEK293F cells; peptide fused to the N-terminus of the light chain of TY21580; also called masking peptide B13180) VH: EVQLVESGGGLVQPGGSLRLSCAASGYSISSGYHWSWIRQAPGKGLEWLARIDWDDDKYYSTSLKSRLTISRDNSKNTLYLQLNSLRAEDTAVYYCARSYVYFDYWGQGTLVTVSS VL: EVGSYIVHHSDCDAFYPYCDSSGRSAGGGGSPLGLAGSGGSDIQLTQSPSSLSASVGDRVTITCRASQSVRGRFLAWYQQKPGKAPKLLIYDASNRATGIPSRFSGSGSGTDFTLTISSLQPEDFATYYCQQSSSWPPTFGQGTKVEIKR	243 fold	554 fold	2210 fold	377 fold	–	–
TY22404 (antibody, V domains shown, IgG1 from HEK293F cells; peptide fused to the N-terminus of the light chain of TY21580; also called masking peptide B13197) VH: EVQLVESGGGLVQPGGSLRLSCAASGYSISSGYHWSWIRQAPGKGLEWLARIDWDDDKYYSTSLKSRLTISRDNSKNTLYLQLNSLRAEDTAVYYCARSYVYFDYWGQGTLVTVSS VL: EVGSYPNPSSDCVPYYYACAYSGRSAGGGGSPLGLAGSGGSDIQLTQSPSSLSASVGDRVTITCRASQSVRGRFLAWYQQKPGKAPKLLIYDASNRATGIPSRFSGSGSGTDFTLTISSLQPEDFATYYCQQSSSWPPTFGQGTKVEIKR	308 fold	572 fold	826 fold	385 fold	469 fold	216 fold
